# Target: microtubules of primary rat hippocampal neurons (rat (endogenous in primary hippocampal neurons)) (UniProt P68370)
substance,measurement,value
"GFP-tagged Tau lacking the microtubule-binding domain (delMTBD-Tau; PRR2-WT, MTBD deleted) (from UniProt P10636-6 1-383) (natural protein)",FRAP recovery plateau in rat neurons,0.873

# — doi:10.1101/2025.11.11.687775
